Results as given in US20070160987A1.

Target: endogenous human CXC chemokine receptor subtype 3 (CXCR3) (human) (UniProt P49682)
Assay: cell-based or functional assay

UniProt P49682, sequence (P49682 whole entry): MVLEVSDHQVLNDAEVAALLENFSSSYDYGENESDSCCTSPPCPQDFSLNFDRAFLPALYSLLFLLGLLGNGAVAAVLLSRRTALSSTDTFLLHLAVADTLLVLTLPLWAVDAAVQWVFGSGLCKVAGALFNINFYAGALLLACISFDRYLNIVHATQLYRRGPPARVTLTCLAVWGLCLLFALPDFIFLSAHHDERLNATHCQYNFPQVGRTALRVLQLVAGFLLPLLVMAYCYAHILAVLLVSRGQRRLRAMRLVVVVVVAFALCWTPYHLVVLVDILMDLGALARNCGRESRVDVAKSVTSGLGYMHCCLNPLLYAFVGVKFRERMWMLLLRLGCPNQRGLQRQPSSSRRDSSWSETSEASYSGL

Row | EC50, pigment aggregation in pre-dispersed (MSH-treated) melanophores transfected with the receptor [nM] | Substance
1 | 0.29 | monokine inducible γ-interferon (Mig) (from UniProt Q07325 23-125) (ligand)
2 | 0.15 | γ-interferon inducible protein-10 (IP-10) (from UniProt P02778 22-98) (ligand)
